Measured values reported in paper doi:10.1101/826578.

Target: Timeless (optimised construct);Tipin (human;human, UniProt Q9UNS1;Q9BVW5 1-238+=GSTGST+331-1208;1-301, internal_change|)
Experiment: EMSA

Row | Binder | binding result
1 | dsG4 (dsGQ) (structured_DNA) DNA 1: ACGAGAGCTAGCACATTTTGAGGGTGGGTAGGGTGGGTAATTTTCACGTAGAACCTGT DNA 2: ACAGGTTCTACGTGATTTTTTTTTTTTTTTTTTTTTTTTTTTTTGTGCTAGCTCTCGT | binds
2 | dsHP (structured_DNA) DNA 1: ACGAGAGCTAGCACATTTTGAGGCTGCGTTTCGCAGCCTCAATTTCACGTAGAACCTGT DNA 2: ACAGGTTCTACGTGATTTTTTTTTTTTTTTTTTTTTTTTTTTTTGTGCTAGCTCTCGT | no binding
